According to PMC2139755:
Values joined by “and” are separate entries in the source; they are usually repeats but may differ in a detail not shown here. Equal values may be shown once. Read-outs that look alike come from different tables or passages of the source.

Columns and labels:
Assay in all cases: radioligand binding
[1] = biological target: receptor for IgE on rat basophilic leukemia cells (RBL-1 cells) (rat (endogenous in RBL-1)) (UniProt P12371)
[2] = biological target: receptor for IgE on rat basophilic leukemia cells (RBL-1 cells) (rat (endogenous in RBL-1)) (UniProt P12371); remark: listed apart in the source
[3] = biological target: receptor for IgE on rat basophilic leukemia cells (RBL-1 cells) (rat (endogenous in RBL-1)) (UniProt P12371); remark: listed apart in the source

Chain of UniProt P12371 (P12371 24-245, chain 1 of 3): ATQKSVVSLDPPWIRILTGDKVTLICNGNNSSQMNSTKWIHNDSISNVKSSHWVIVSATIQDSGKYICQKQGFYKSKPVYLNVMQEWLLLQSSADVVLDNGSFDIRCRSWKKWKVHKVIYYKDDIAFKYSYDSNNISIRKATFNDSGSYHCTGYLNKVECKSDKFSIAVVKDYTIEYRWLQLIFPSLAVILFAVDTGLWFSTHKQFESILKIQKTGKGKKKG
Chain of UniProt P12371 (P13386 whole entry, chain 2 of 3, further chain): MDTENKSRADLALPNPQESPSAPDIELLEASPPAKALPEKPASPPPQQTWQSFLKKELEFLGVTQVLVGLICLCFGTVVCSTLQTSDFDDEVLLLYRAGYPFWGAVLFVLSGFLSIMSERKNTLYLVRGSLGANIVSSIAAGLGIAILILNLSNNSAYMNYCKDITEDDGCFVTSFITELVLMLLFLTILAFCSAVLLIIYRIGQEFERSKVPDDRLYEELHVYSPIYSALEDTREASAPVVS
Chain of UniProt P12371 (P20411 19-86, chain 3 of 3, further chain): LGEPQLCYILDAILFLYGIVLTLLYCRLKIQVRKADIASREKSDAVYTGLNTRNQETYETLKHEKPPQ

**Q.** With “[125I]IgE (IR 162), 125I-labeled rat IgE myeloma protein (antibody)” as the substance, how does the Ka [1] read?
**A.** The Ka was 1.2e+09 M⁻¹.

**Q.** And the koff [1]?
**A.** The koff was 1.7e-05 s⁻¹.

**Q.** What about the kon [1] of the same substance?
**A.** The kon was 21000 M⁻¹ s⁻¹.

**Q.** And the Ka [2]?
**A.** Its Ka is 1.2e+10 M⁻¹.

**Q.** What about the koff [2] of the same substance?
**A.** The koff was 4.7e-06 s⁻¹.

**Q.** And the kon [2]?
**A.** The kon was 57000 M⁻¹ s⁻¹.

**Q.** What about the Ka [3] of the same substance?
**A.** Its Ka is > 6e+09 M⁻¹ and 6e+09 M⁻¹.

**Q.** And the half-life of dissociation [3]?
**A.** Its half-life of dissociation is 12 h.

**Q.** What about the koff [3] of the same substance?
**A.** The koff was 1.6e-05 s⁻¹ and 1.4e-05 s⁻¹.

**Q.** And the percent of the labeled protein bound (active fraction) [3]?
**A.** Its percent of the labeled protein bound (active fraction) is 70 to 80%.

**Q.** And the relative binding at 15 min (% of no additive), Ca++ 2 mM [3]?
**A.** Its relative binding at 15 min (% of no additive), Ca++ 2 mM is 92%.

**Q.** And the relative binding at 15 min (% of no additive), Ca++ 4 mM [3]?
**A.** The relative binding at 15 min (% of no additive), Ca++ 4 mM was 88%.

**Q.** And the relative binding at 15 min (% of no additive), Ca++ 8 mM [3]?
**A.** Its relative binding at 15 min (% of no additive), Ca++ 8 mM is 80%.

**Q.** And the relative binding at 15 min (% of no additive), Ca++ and Mg++ 2, 2 mM [3]?
**A.** The relative binding at 15 min (% of no additive), Ca++ and Mg++ 2, 2 mM was 86%.

**Q.** And the relative binding at 15 min (% of no additive), EDTA 4 mM [3]?
**A.** Its relative binding at 15 min (% of no additive), EDTA 4 mM is 98%.

**Q.** What about the relative binding at 15 min (% of no additive), EDTA (4 mM) plus Ca++ 2 mM [3] of the same substance?
**A.** Its relative binding at 15 min (% of no additive), EDTA (4 mM) plus Ca++ 2 mM is 78%.

**Q.** And the relative binding at 15 min (% of no additive), EDTA (4 mM) plus Ca++ 4 mM [3]?
**A.** Its relative binding at 15 min (% of no additive), EDTA (4 mM) plus Ca++ 4 mM is 43%.

**Q.** What about the relative binding at 15 min (% of no additive), EDTA (4 mM) plus Mg++ 2 mM [3] of the same substance?
**A.** The relative binding at 15 min (% of no additive), EDTA (4 mM) plus Mg++ 2 mM was 85%.

**Q.** And the relative binding at 15 min (% of no additive), EDTA (4 mM) plus Mg++ 8 mM [3]?
**A.** The relative binding at 15 min (% of no additive), EDTA (4 mM) plus Mg++ 8 mM was 44%.

**Q.** And the relative binding at 15 min (% of no additive), Mg++ 2 mM [3]?
**A.** The relative binding at 15 min (% of no additive), Mg++ 2 mM was 93%.

**Q.** And the relative binding at 15 min (% of no additive), Mg++ 4 mM [3]?
**A.** The relative binding at 15 min (% of no additive), Mg++ 4 mM was 89%.

**Q.** What about the relative binding at 15 min (% of no additive), Mg++ 8 mM [3] of the same substance?
**A.** The relative binding at 15 min (% of no additive), Mg++ 8 mM was 82%.

**Q.** And the relative binding at 20 min (% of no additive), Al2(SO4)3 0.7 x 10^-7 M [3]?
**A.** The relative binding at 20 min (% of no additive), Al2(SO4)3 0.7 x 10^-7 M was 110%.

**Q.** What about the relative binding at 20 min (% of no additive), Al2(SO4)3 7.0 x 10^-7 M [3] of the same substance?
**A.** The relative binding at 20 min (% of no additive), Al2(SO4)3 7.0 x 10^-7 M was 108%.

**Q.** And the relative binding at 20 min (% of no additive), Al2(SO4)3 70 x 10^-7 M [3]?
**A.** The relative binding at 20 min (% of no additive), Al2(SO4)3 70 x 10^-7 M was 105%.

**Q.** What about the relative binding at 20 min (% of no additive), heparin 3.3 ug/ml [3] of the same substance?
**A.** Its relative binding at 20 min (% of no additive), heparin 3.3 ug/ml is 101%.

**Q.** What about the relative binding at 20 min (% of no additive), heparin 10 ug/ml [3] of the same substance?
**A.** Its relative binding at 20 min (% of no additive), heparin 10 ug/ml is 110%.

**Q.** And the relative binding at 20 min (% of no additive), heparin 30 ug/ml [3]?
**A.** The relative binding at 20 min (% of no additive), heparin 30 ug/ml was 102%.

**Q.** And the relative binding at 20 min (% of no additive), human serum albumin 0.3 mg/ml [3]?
**A.** The relative binding at 20 min (% of no additive), human serum albumin 0.3 mg/ml was 93%.

**Q.** What about the relative binding at 20 min (% of no additive), phosphatidyl serine 12.5 ug/ml [3] of the same substance?
**A.** Its relative binding at 20 min (% of no additive), phosphatidyl serine 12.5 ug/ml is 105%.

**Q.** What about the relative binding at 20 min (% of no additive), phosphatidyl serine 50 ug/ml [3] of the same substance?
**A.** Its relative binding at 20 min (% of no additive), phosphatidyl serine 50 ug/ml is 116%.

**Q.** And the relative binding at 20 min (% of no additive), phosphatidyl serine 200 ug/ml [3]?
**A.** Its relative binding at 20 min (% of no additive), phosphatidyl serine 200 ug/ml is 135%.

**Q.** What about the relative binding at 60 min (% of no additive), Al2(SO4)3 0.7 x 10^-7 M [3] of the same substance?
**A.** The relative binding at 60 min (% of no additive), Al2(SO4)3 0.7 x 10^-7 M was 101%.

**Q.** What about the relative binding at 60 min (% of no additive), Al2(SO4)3 7.0 x 10^-7 M [3] of the same substance?
**A.** The relative binding at 60 min (% of no additive), Al2(SO4)3 7.0 x 10^-7 M was 97%.

**Q.** What about the relative binding at 60 min (% of no additive), Al2(SO4)3 70 x 10^-7 M [3] of the same substance?
**A.** The relative binding at 60 min (% of no additive), Al2(SO4)3 70 x 10^-7 M was 96%.

**Q.** What about the relative binding at 60 min (% of no additive), heparin 3.3 ug/ml [3] of the same substance?
**A.** Its relative binding at 60 min (% of no additive), heparin 3.3 ug/ml is 99%.

**Q.** What about the relative binding at 60 min (% of no additive), heparin 10 ug/ml [3] of the same substance?
**A.** The relative binding at 60 min (% of no additive), heparin 10 ug/ml was 97%.

**Q.** What about the relative binding at 60 min (% of no additive), heparin 30 ug/ml [3] of the same substance?
**A.** The relative binding at 60 min (% of no additive), heparin 30 ug/ml was 101%.

**Q.** And the relative binding at 60 min (% of no additive), human serum albumin 0.3 mg/ml [3]?
**A.** Its relative binding at 60 min (% of no additive), human serum albumin 0.3 mg/ml is 99%.

**Q.** What about the relative binding at 60 min (% of no additive), phosphatidyl serine 12.5 ug/ml [3] of the same substance?
**A.** Its relative binding at 60 min (% of no additive), phosphatidyl serine 12.5 ug/ml is 112%.

**Q.** What about the relative binding at 60 min (% of no additive), phosphatidyl serine 50 ug/ml [3] of the same substance?
**A.** Its relative binding at 60 min (% of no additive), phosphatidyl serine 50 ug/ml is 114%.

**Q.** What about the relative binding at 60 min (% of no additive), phosphatidyl serine 200 ug/ml [3] of the same substance?
**A.** The relative binding at 60 min (% of no additive), phosphatidyl serine 200 ug/ml was 121%.

**Q.** And the relative binding at 61 min (% of no additive), Ca++ 2 mM [3]?
**A.** The relative binding at 61 min (% of no additive), Ca++ 2 mM was 95%.

**Q.** What about the relative binding at 61 min (% of no additive), Ca++ 4 mM [3] of the same substance?
**A.** Its relative binding at 61 min (% of no additive), Ca++ 4 mM is 91%.

**Q.** And the relative binding at 61 min (% of no additive), Ca++ 8 mM [3]?
**A.** Its relative binding at 61 min (% of no additive), Ca++ 8 mM is 85%.

**Q.** And the relative binding at 61 min (% of no additive), Ca++ and Mg++ 2, 2 mM [3]?
**A.** The relative binding at 61 min (% of no additive), Ca++ and Mg++ 2, 2 mM was 70%.

**Q.** And the relative binding at 61 min (% of no additive), EDTA 4 mM [3]?
**A.** The relative binding at 61 min (% of no additive), EDTA 4 mM was 96%.

**Q.** What about the relative binding at 61 min (% of no additive), EDTA (4 mM) plus Ca++ 2 mM [3] of the same substance?
**A.** Its relative binding at 61 min (% of no additive), EDTA (4 mM) plus Ca++ 2 mM is 88%.

**Q.** What about the relative binding at 61 min (% of no additive), EDTA (4 mM) plus Ca++ 4 mM [3] of the same substance?
**A.** Its relative binding at 61 min (% of no additive), EDTA (4 mM) plus Ca++ 4 mM is 46%.

**Q.** And the relative binding at 61 min (% of no additive), EDTA (4 mM) plus Mg++ 2 mM [3]?
**A.** Its relative binding at 61 min (% of no additive), EDTA (4 mM) plus Mg++ 2 mM is 97%.

**Q.** What about the relative binding at 61 min (% of no additive), EDTA (4 mM) plus Mg++ 8 mM [3] of the same substance?
**A.** Its relative binding at 61 min (% of no additive), EDTA (4 mM) plus Mg++ 8 mM is 53%.

**Q.** What about the relative binding at 61 min (% of no additive), Mg++ 2 mM [3] of the same substance?
**A.** The relative binding at 61 min (% of no additive), Mg++ 2 mM was 70%.

**Q.** What about the relative binding at 61 min (% of no additive), Mg++ 4 mM [3] of the same substance?
**A.** The relative binding at 61 min (% of no additive), Mg++ 4 mM was 64%.

**Q.** And the relative binding at 61 min (% of no additive), Mg++ 8 mM [3]?
**A.** The relative binding at 61 min (% of no additive), Mg++ 8 mM was 62%.
